In patent publication US20260250410A1, “ANTIBODY AND USE THEREOF” (SICHUAN HUIYU PHARMACEUTICAL CO., LTD., priority 2022, published 2026):

T1: HuCDCP1-C (Homo sapiens, UniProt Q9H5V8)
T1 construct: made in house; host or cells: HEK-293T
T1 sequence (Q9H5V8 30-667): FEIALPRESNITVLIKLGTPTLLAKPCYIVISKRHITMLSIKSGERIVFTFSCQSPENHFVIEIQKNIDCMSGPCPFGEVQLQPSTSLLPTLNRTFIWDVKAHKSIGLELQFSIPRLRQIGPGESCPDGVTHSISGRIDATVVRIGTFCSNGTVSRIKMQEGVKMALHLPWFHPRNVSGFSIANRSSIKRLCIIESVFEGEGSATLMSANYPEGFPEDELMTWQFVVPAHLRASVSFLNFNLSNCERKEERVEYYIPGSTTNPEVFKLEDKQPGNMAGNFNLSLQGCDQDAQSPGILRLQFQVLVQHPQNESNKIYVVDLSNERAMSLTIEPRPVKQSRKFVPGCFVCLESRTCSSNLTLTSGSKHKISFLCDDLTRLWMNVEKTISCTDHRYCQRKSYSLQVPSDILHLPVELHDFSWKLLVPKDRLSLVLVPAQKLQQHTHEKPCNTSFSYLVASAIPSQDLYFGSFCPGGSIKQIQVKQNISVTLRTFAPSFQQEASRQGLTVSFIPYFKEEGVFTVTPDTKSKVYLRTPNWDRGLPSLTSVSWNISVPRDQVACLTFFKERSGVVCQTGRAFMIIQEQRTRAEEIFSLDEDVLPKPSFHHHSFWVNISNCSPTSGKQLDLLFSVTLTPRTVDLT


Legend:
MDA-MB-231 cells = assay: Endocytosis capacity of murine monoclonal antibody (flow cytometry internalization); assay type: cell-based, human; conditions: antibody 1.5 μg/mL; for Internalization MDA-MB-231 (%) 0.5 h: MDA-MB-231, 0.5 h at 37° C.; for Internalization MDA-MB-231 (%) 1 h: MDA-MB-231, 1 h at 37° C.; for Internalization MDA-MB-231 (%) 2 h: MDA-MB-231, 2 h at 37° C.
Experimental: (§1) The endocytosis capacity of the antibody was detected for 0.5 to 2 hours. MDA-MB-231 and PC3 cells were subjected to digestion with 5 mM EDTA, and plated at 4×10^4 cells/well after cell counting. After adding an Fc blocker (Human TruStain FcX™, Biolegend, 422302) and blocking at room temperature for 10 mins, a test antibody (1.5 μg/mL) was added, and the mixture was incubated at 4° C. for 30 mins, centrifuged, and washed twice with PBS+2% FBS, then the cells were divided into four equal portions (labeled as 0 h, 0.5 h, 1 h, 2 h), cells labeled as 0.5 h, 1 h, 2 h time points were added to a cell culture medium at 200 µL/well, and cultured at 37° C. for 0.5 h, 1 h, 2 h, respectively. Cells at 0 h point were centrifuged to remove supernatant, a secondary antibody (PE anti-human IgG Fc Antibody, Biolegend, 410708) was added, and the mixture was incubated at 4° C. for 30 mins, centrifuged, and washed twice with PBS+2% FBS, and detection was performed using a flow cytometer. After incubation of cells labeled as 0.5 h, 1 h, and 2 h points at 37° C. was completed, a secondary antibody was added (in the same steps as those at 0 h point), Geo-MFI of the signal under the same voltage was collected as detection signal at 0 h, and antibody internalization rate was calculated according to the following equation: Internalization (%)=(Geo-MFI (0 h)-Geo-MFI (0.5, 1, 2 h))/Geo-MFI (0 h)×100%.

PC3 cells = assay: as above; assay type: cell-based, human; conditions: antibody 1.5 μg/mL; for Internalization PC3 (%) 0.5 h: PC3, 0.5 h at 37° C.; for Internalization PC3 (%) 1 h: PC3, 1 h at 37° C.; for Internalization PC3 (%) 2 h: PC3, 2 h at 37° C.
Experimental: as §1

HuCDCP1-C = molecular target: T1, HuCDCP1-C; assay: Caterra affinity of humanized anti-CDCP1 antibodies; assay type: binding; conditions: HuCDCP1-C 2 μg/ml immobilized
Experimental: The humanized anti-CDCP1 antibodies obtained from Example 11 were subjected to gene cloning, constructed into pTT5 expression vector for a small amount of expression in CHO cells (Expi-CHOS: Gibco A29127), and purified with an Fc affinity column (AT Protein A Diamond Plus. No. AA402312). Antibody purity was analyzed by HPLC and determined by Nanodrop. High-throughput affinity assay was carried out for a small amount of antibodies by Caterra.

Row | Molecule | Internalization MDA-MB-231 (%) 0.5 h (MDA-MB-231 cells) | Internalization MDA-MB-231 (%) 1 h (MDA-MB-231 cells) | Internalization MDA-MB-231 (%) 2 h (MDA-MB-231 cells) | Internalization PC3 (%) 0.5 h (PC3 cells) | Internalization PC3 (%) 1 h (PC3 cells) | Internalization PC3 (%) 2 h (PC3 cells) | ka (HuCDCP1-C) | kd (HuCDCP1-C)
1 | 24G4: anti-CDCP1 murine monoclonal antibody (hybridoma); VH SEQ ID NO: 261, VL SEQ ID NO: 311 (antibody, V domains shown, 24G4 heavy chain variable region; 24G4 light chain variable region) VH: EVQLKESGAELVRSGASVKLSCTASGFNIKDYYIHWVKQRPEQGLEWIGWIDPENGDTEYVPKFQGKATLTADTSSNTAYLQLNSLTSEDTAVYYCNPCGTGPWFAYWGQGTTVTVSS VL: DIQMTQSPAILSASPGEKVTMTCRASSSVSYIHWYQQKPGSSPDPWIYATSFLASGVPGRFSGSGSGTSYSLTISRLEAEDAATYYCQQWNSSPFTFGGGTKLEIK | 55.98% | 70.68% | 83.23% | 46.97% | 67.07% | 82.61% |  | 
2 | 6G9: anti-CDCP1 murine monoclonal antibody (hybridoma); VH SEQ ID NO: 244, VL SEQ ID NO: 295 (antibody, V domains shown, 6G9 heavy chain variable region; 6G9 light chain variable region) VH: EVQLKESGPGLVKPSQSLSLTCTVTGYSITSDYAWNWIRQFPGNKLEWMGYIIYSGRTSYNPSLKSRISITRDTSKNQFFLQLNSVTTEDTATYYCAREDYYGGSYGGLDYWGQGTTVTVSS VL: DIVMTQSPLSLPVSLGDQASISCRSSQSIVHSNGNTYLEWYLQKPGQSPKLLIYKVSNRFSGVPDRFSGSGSGTDFTLKISRVEAEDLGVYYCFQGSHVPWTFGGGTKLEIK | 75.76% | 86.81% | 88.89% | 60.58% | 77.88% | 87.67% |  | 
3 | 5G9: anti-CDCP1 murine monoclonal antibody (hybridoma); VH SEQ ID NO: 241, VL SEQ ID NO: 292 (antibody, V domains shown, 5G9 heavy chain variable region; 5G9 light chain variable region) VH: EVQLQQSGTVLARPGASVKMSCKASGYIFLNYWMHWVKQRPGQGLEWIGGIYPGNTDTTYNQKFKGKAKVTAVTSATTAYMELSSLTNEDSAVYYCIRYDYDRGMDYWGQGTTVTVSS VL: DIVMTQAPAIMSASPGEKVTISCSASSSVSYIYWYQQKPGSSPKPWIYRTSNLASGVPARFSGSGSGTSYSLTISSMEAEDAATYYCQQYHSYPYTFGGGTKLEIK | 0.00% | 0.00% | 0.00% | 0.00% | 0.00% | 0.00% |  | 
4 | 3F1A11: anti-CDCP1 murine monoclonal antibody (hybridoma); VH SEQ ID NO: 245, VL SEQ ID NO: 296 (antibody, V domains shown, 3F1A11 heavy chain variable region; 3F1A11/3F1A11-H-12 light chain variable region) VH: EVKLVESGPGLVKPSQSLSLTCTVTGYSITSDYAWNWIRQFPGNKLEWMGYISYNTYTSYNPSLKSRISVTRDTSKNQFFLQLKSVTIEDTATYFCAGGDYYGTGAVDYWGQGTTVTVSS VL: EIVLTQSPLSLPVSLGDQASISCRSRQTLVHTNGNTYLDWYLQKPGQSPKLLIYKVSIRFSGVPDRFSGSRSGTDFTLKISRVEAEDLGIYYCFQGSHVPWTFGGGTKLEIK |  |  | 38.10% |  |  | 51.76% |  | 
5 | 3F1A11-H-12: anti-CDCP1 murine monoclonal antibody (hybridoma); VH SEQ ID NO: 248, VL SEQ ID NO: 296 (antibody, V domains shown, 3F1A11-H-12 heavy chain variable region; 3F1A11/3F1A11-H-12 light chain variable region) VH: EVKLVESGPGLVKPSQSLSLTCSVTGYSITSGYYWNWIRQFPGNKLDWMGYITYDDSHYYNPSLKDRLSITRDTSKNQFFLKLNSVTAEDTATYFCARGNYYANYPHAMDYWGQGTTVTVSS VL: EIVLTQSPLSLPVSLGDQASISCRSRQTLVHTNGNTYLDWYLQKPGQSPKLLIYKVSIRFSGVPDRFSGSRSGTDFTLKISRVEAEDLGIYYCFQGSHVPWTFGGGTKLEIK |  |  | 37.57% |  |  | 33.83% |  | 
6 | 1CP-061: anti-CDCP1 murine monoclonal antibody (hybridoma); VH SEQ ID NO: 262, VL SEQ ID NO: 312 (antibody, V domains shown, 1CP-061 heavy chain variable region; 1CP-061 light chain variable region) VH: EVQLKESGAELVRPGASVKLSCKASGYTFTSYWINWVRQRPGQGLEWIGNIYPSDSYTNYNQKFKDKATLTVDKSSSTAYMQLSSPTSEDSAVYYCTRCLRRRDWYFDVWGQGTTVTVSS VL: DVVMTQTPASLAVSLGQRATISCRASESVDYSGYSFMHWYQQKPGQPPKLLIYRASNLESGIPARFSGSGSRTDFTLTINPVEADDVATYYCQQSNEDPYTFGGGTKLEIK |  |  | 42.68% |  |  | 28.00% |  | 
7 | 1CP-063: anti-CDCP1 murine monoclonal antibody (hybridoma); VH SEQ ID NO: 263, VL SEQ ID NO: 313 (antibody, V domains shown, 1CP-063 heavy chain variable region; 1CP-063 light chain variable region) VH: EVNLKESGPELVKPGASVRISCKASGYTFTSYYIHWVKQRPGQGLEWIGWIYPGNVNSKYNEKFKGKVTLTADKSSITAYMQLSSLTSEDSAVYFCAREDYGHYYAMDYWGQGTTVTVSS VL: DIVMTQSPSSMYASLGERVTITCKASQDIKSYLSWYQQKPWKSPKTLIYYATSLADGVPSRFSGSGSGQDYSLTISSLESDDTATYYCLQYGESPWTFGGGTKLEIK |  |  | 49.71% |  |  | 62.68% |  | 
8 | 1CP-114: humanized anti-CDCP1 antibody produced by 8E5; VH SEQ ID NO: 349, VL SEQ ID NO: 357 (antibody, V domains shown, humanized antibody 8E5 heavy chain variable region 03; humanized antibody 8E5 light chain variable region 01) VH: QVQLVQSGSELKKPGESVKVSCKASGYTLTDFSMHWVRQAPGQGLEWMGWINTETGAPTYADDFKGRFVLSLDTSVSTAYLQISSLKSEDTAVYYCSRGRDYDPHFDYWGQGTLVTVSS VL: EIVLTQSPATLSLSPGERATLSCRASQSISDFLHWYQQKPGQAPRLLIKYASQSISGIPARFSGSGPGSDFTLTISSVEPEDFAVYYCQSAHSFPYTFGQGTKLEIK |  |  |  |  |  |  | 161000 M⁻¹ s⁻¹ | 0.00246 s⁻¹
9 | 1CP-116: humanized anti-CDCP1 antibody produced by 8E5; VH SEQ ID NO: 347, VL SEQ ID NO: 358 (antibody, V domains shown, humanized antibody 8E5 heavy chain variable region 01; humanized antibody 8E5 light chain variable region 02) VH: QVQLVQSGSELKKPGASVKVSCKASGYTLTDFSMHWVRQAPGQGLEWMGWINTETGAPTYADDFKGRFVFSLDTSVSTAYLQISSLKAEDTAVYYCSRGRDYDPHFDYWGQGTLVTVSS VL: EIVLTQSPATLSLSPGERATLSCRASQSISDFLHWYQQKPGQSPRLLIKYASQSISGIPARFSGSGSGSDFTLTISSVEPEDFAVYYCQSAHSFPYTFGQGTKLEIK |  |  |  |  |  |  | 128000 M⁻¹ s⁻¹ | 4.59e-05 s⁻¹
